What was measured:
[1] = target: epidermal growth factor receptor (human (endogenous in MDA-MB-231)) (UniProt P00533); assay: flow cytometry on cells
[2] = target: epidermal growth factor receptor (human (endogenous in MDA-MB-231)) (UniProt P00533); assay: radioligand binding

fluorescence, fold over control, at saturation [1]: 12 fold | IC50 2 (two-site competition, site 2) [2]: 1180 nM
Substance: recombinant domain III (DIII) of the laminin-5 γ2-chain (domain or fragment)

— article PMC2172889
